Measured values from paper PMC10221132, “DA7R: A 7-Letter Zip Code to Target PDAC” (Pharmaceutics, 2023).
Where a SMILES comes first, the peptide text is derived from it.

Columns and labels:
erythrocytes = test: Hemolysis assay; format: cell-based; settings: 5 × 10^7 erythrocytes in 1 mL PBS pH 7.4; 1, 0.5, 0.25 or 0.125 nmoles/10^7 cells; 15 min; Abs 540 nm; relative to Triton X-100 1%; n = 3
Description: Hemolysis studies were conducted as described in [48]. Briefly, freshly withdrawn blood samples were centrifuged at 2000× g for 10 min to obtain erythrocytes; the pellet was then washed three times with sterile PBS (pH 7.4). Erythrocytes (5 × 10^7 cells in 1 mL of PBS for each experimental condition) were incubated with the tested compounds at the concentrations of 1, 0.5, 0.25, or 0.125 nmoles/10^7 cells for 15 min. The samples were then centrifuged and the absorbance (Abs) of the supernatant was measured at 540 nm. Triton X-100 1% and PBS were used as positive and negative control, respectively. The percentage of hemolysis was calculated with the following equation:% hemolysis = [(Abssample − AbsPBS)/(AbsTriton X-100 − AbsPBS)] × 100

[1] = Blood stability: hydrolysis of PAPTPL-peptide derivatives in mouse blood; format: in vitro ADME; settings: heparinized mouse whole blood, 5 µM from 5 mM DMSO stock, 37 °C, 4 h, UHPLC/UV 312 nm, mean of n = 3
Description: Procedures involving animals were approved by the University of Padova Ethical Committee for Animal Welfare (OPBA) and by the Italian Ministry of Health (Permit Number 846/2021-PR), and conducted with the supervision of the Central Veterinary Service of the University of Padova, in compliance with Italian Law DL 26/2014, embodying UE Directive 2010/63/EU. Mice were anesthetized and blood was withdrawn from the jugular vein and heparinized. Blood samples (1 mL) were spiked with compound (5 µM; dilution from a 5 mM stock solution in DMSO) and incubated at 37 °C for 4 h (the maximum period allowed by blood stability). Aliquots (100 µL) were taken after 10 min, 30 min, 1 h, 2 h, and 4 h, kept on ice, and treated as follows: blood was mixed with 5 volumes of 0.1%TFA in CH3CN, mixed and sonicated for 2 min, and finally centrifuged for 7 min at 12,000× g; the supernatant was collected and analyzed by UHPLC. Quantitative analyses were carried out by UHPLC (1290 Infinity LC System, Agilent Technologies, Milan, Italy) using a reversed-phase column (Zorbax RRHT Extend C18, 1.8 µm, 50 × 3.0 mm, Agilent Technologies) and a UV diode array detector (190–500 nm), at a flow rate of 0.6 mL/min. Solvents A and B were 0.1% TFA in water and CH3CN, respectively. The gradient for B was as follows: 10% for 1 min, then from 10 to 100% in 8.0 min, 100% for 0.5 min, then from 100% to 10% in 1.5 min. The injection volume was 5 µL. The eluate was preferentially monitored at 312 nm (corresponding to an absorbance maximum of psoralenic compounds). The temperature of the column was kept at 25 °C. Concentration of PAPTPL or its derivatives was determined using the following calibration curve, which correlates peak area at 312 nm (y) with compound concentration in the sample (x): y = 6.3321x. The stability in blood was expressed as % of PAPTPL released relative to the amount of the derivative initially spiked in the sample.

VEGFR2 = settings: surface plasmon resonance; cited from earlier work
From the text: (§1) A7R peptide binds to both neuropilin-1 (NRP-1) and vascular endothelial growth factor receptor-2 (VEGFR2/KDR), disrupting their receptor/coreceptor interaction, and impacting, therefore, on angiogenesis and tumor growth. […] Binding of A7R to NRP-1, on the other hand, mainly involves interactions of Arg with the ...

NRP-1 = settings: surface plasmon resonance; cited from earlier work
From the text: as §1

HPAFII cells = test: Cell uptake of PAPTPL-I-DA7R (HPLC/UV); format: cell-based, human; settings: 5 µM, 15 min, 37 °C, DMEM without Phenol Red and serum, nmoles/mg total protein, n ≥ 9
Description: HPAFII and Pan02 cells were seeded in 6-well plates at a density of 300,000 and 150,000 cells/well, respectively, and grown for 48 h. They were then washed twice with PBS and incubated for 15 min at 37 °C with a solution of 5 µM PAPTPL-I-DA7R in DMEM without Phenol Red and serum. At the end of the incubation, cells were washed twice, 100 µL of PBS were added, and finally the cells were scraped and collected. A volume of 100 µL of CH3CN + 0.1%TFA was added, and the mixture was vortexed and sonicated for 5 min. Samples were finally centrifuged for 5 min at 12,000× g, and the supernatant was collected and the amount of PAPTPL-I-DA7R was quantified by HPLC/UV, as described in Section 2.5 (blood stability). The remaining cell pellets were resuspended in 200 µL of SDS 2%, and the total protein amount of each sample was quantified with the BCA assay. Cell uptake of PAPTPL-I-DA7R was expressed as nmoles of PAPTPL-I-DA7R/total protein.

Structure (SMILES)	Hemolysis (erythrocytes)	% of conjugate hydrolyzed (PAPTPL released relative to derivative initially spiked) [1]	Affinity for VEGFR2 (VEGFR2)	Affinity for NRP-1 (NRP-1)	Uptake by HPAFII cells relative to cultured Pan02 cells (HPAFII cells)
CC(C)C[C@@H](NC(=O)[C@H]1CCCN1C(=O)[C@H]1CCCN1C(=O)[C@@H](CCCNC(=N)N)NC(=O)CCCc1cn(CCOCCOCCOCCOCCNC(=O)Oc2ccc(CCCOc3ccc([P+](CCCc4ccc(OCCCCOc5c6ccoc6cc6oc(=O)ccc56)cc4)(c4ccccc4)c4ccccc4)cc3)cc2)nn1)C(=O)N[C@H](Cc1c[nH]c2ccccc12)C(=O)N[C@@H](C(=O)N[C@H](C)C(=O)O)[C@H](C)O [PAPTPL-Teg-DA7R]	increase in the ability of the derivative (PAPTPL-Teg-DA7R) to lyse erythrocytes	about 50%			
C#CC[C@@H]1NC(=O)[C@H](CCCNC(=N)N)NC(=O)[C@@H]2CCCN2C(=O)[C@@H]2CCCN2C(=O)[C@H](CC(C)C)NC(=O)[C@H](Cc2c[nH]c3ccccc23)NC(=O)[C@H]([C@@H](C)O)NC(=O)[C@H](C)NC1=O [cA7R] (HELM PEPTIDE1{A.T.W.L.P.P.R.[C#CC[C@H](N[*:1])C(=O)[*:2]]}$PEPTIDE1,PEPTIDE1,1:R1-8:R2$$$V2.0)	completely ineffective towards erythrocytes		retain affinity	retain affinity	
CC(C)C[C@@H]1NC(=O)[C@H](Cc2c[nH]c3ccccc23)NC(=O)[C@H]([C@@H](C)O)NC(=O)[C@H](C)NC(=O)[C@H](Cc2cn(CCOCCOCCOCCOCCNC(=O)Oc3ccc(CCCOc4ccc([P+](CCCc5ccc(OCCCCOc6c7ccoc7cc7oc(=O)ccc67)cc5)(c5ccccc5)c5ccccc5)cc4)cc3)nn2)NC(=O)[C@H](CCCNC(=N)N)NC(=O)[C@@H]2CCCN2C(=O)[C@@H]2CCCN2C1=O [PAPTPL-Teg-cA7R]	dramatic increase in the hemolysis	about 50%			
CC[C@H](C)[C@H](NC(=O)Oc1ccc(CCCOc2ccc([P+](CCCc3ccc(OCCCCOc4c5ccoc5cc5oc(=O)ccc45)cc3)(c3ccccc3)c3ccccc3)cc2)cc1)C(=O)N[C@H](CCCNC(=N)N)C(=O)N1CCC[C@@H]1C(=O)N1CCC[C@@H]1C(=O)N[C@H](CC(C)C)C(=O)N[C@H](Cc1c[nH]c2ccccc12)C(=O)N[C@@H](C(=O)N[C@H](C)C(=O)O)[C@H](C)O [PAPTPL-I-DA7R] (HELM PEPTIDE1{[O=C(Oc1ccc(CCCOc2ccc([P+](CCCc3ccc(OCCCCOc4c5ccoc5cc5oc(=O)ccc45)cc3)(c3ccccc3)c3ccccc3)cc2)cc1)[*:2]].I.[dR].[dP].[dP].[dL].[dW].[dT].[dA]}$$$$V2.0)	did not induce any hemolysis	about 30%			roughly twice as much
